# Measurements published in publication PMC4669440.
# B1: Dentin matrix protein 1 (DMP1): S89G (protein)
# parent chain: MKTVILLVFLWGLSCALPVARYHNTESESSEERTGDLAGSPPPPTNSESSEESQASPEGQANSDHTDSSESGEELGYDRGQYRPAGGLSKSTGTGADKEDDEDDSGDDTFGDEDNDLGPEEGQWGGPSKLDSDEDSTDTTQSSEDSTSQENSAQDTPSDSKDHDSEDEADSRPEAGDSTQDSESEEQRVGGGSEGESSHGDGSEFDDEGMQSDDPESTRSDRGHARMSSAGIRSEESKGDHEPTSTQDSDDSQSVEFSSRKSFRRSHVSEEDYRGELTDSNSRETQSDSTEDTASKEESRSESQEDTAESQSQEDSPEGQDPSSESSEEAGEPSQESSSESQEGVTSESRGDNPDNTSQAGDQEDSESSEEDSLNTFSSSESQSTEEQADSESNESLSLSEESQESAQDGDSSSQEGLQSQSASTESRSQESQSEQDSRSEEDSDSQDSSRSKEESNSTGSASSSEEDIRPKNMEADSRKLIVDAYHNKPIGDQDDNDCQDGY
# Experiment: micro-CT of femur
# Settings: glycan lost; control: WT mice
protein,measurement,value
B1,other: bone material density,increases
